Assay results taken from the nanobody polyreactivity screen of Harvey et al. (2022).

Experiment: yeast display, Sf9 membrane polyspecificity reagent, FACS + sequencing; frameworks hold sequencing errors
How it was run: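 A nanobody's polyreactivity label depends on the gate it was sorted from. Yeast display cells were stained with 10% biotinylated, detergent-solubilized Sf9 membrane reagent for 1 hour at 4 °C, enriched on streptavidin microbeads and sorted by FACS. The low and high (top ~1%) gates were set on anti-HA fluorescence for expression and streptavidin fluorescence for reagent binding.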

Sequence: QVQLVESGGGLVQAGGSLRLSCAASGSTFVLNAMGWDRQAPGKERELVAAITRDGRTYYADSVKGRFTISRDNAKNTVYLQMNSLKPEDTAVYYCARPARYSYGDGYWGQGTQVTVSS
- polyreactivity (PSR sort gate): low polyreactivity

Sequence: QVQLVESGGGLVQAGGSLRLSCAATGSTFYVNDMGWYRQAPGKERELVAAIDWTGGTTYYADSEKGRFTISRDNAKNTVYLQMNSLKPEDSAVYYCAVDDSTVDYDYWGQGTQVTVSS
- polyreactivity (PSR sort gate): low polyreactivity

Sequence: QVQLVESGGGLVQAGGSLRLSCAASGRTFQYYAMGWYRQAPGKERELVAAISWSGARTYYADSVKGRFTISRDNAKNTVYLQMNSLKPEDTAVYYCAADRYWISLWYIMGYWGQGTQVTVSS
- polyreactivity (PSR sort gate): high polyreactivity

Sequence: QVQLVESGGGLVQAGGSLRLSCAASGFTFSYYAMGWYRQAPGKERELVAAISWSGTAMYYADSVKGRFTISRDNAKNTVYLQMNSLKPEDTAVYYCAAGYSASRKVDYWGQGTQVTVSS
- polyreactivity (PSR sort gate): high polyreactivity

Sequence: QVQLVESGGGLVQAGGSLRLSCAASGSTFGSNAMGWYRQAPGKERELVAAITNGGSTNYADSVKGRFTISRDNAKNTVYLQMHSLKPEDTAVYYCNADPQQSKLWTYFFGFPGYYWGQGTQVTVSS
- polyreactivity (PSR sort gate): low polyreactivity

Sequence: QVQLVESGGGLVQAGGSLRLSCAASGYIFDVYDMGWYRQAPGKERELVAAITDYADSVKGRFTISRDNAKNTVYLQMNSLKPEDTAVYYCAADTDVLKGTTGFEYWGQGTQVTVSS
- polyreactivity (PSR sort gate): low polyreactivity

Sequence: QVQLVESGGGLVQAGGSLRLSCAASGFIFGVYAMGWYRQAPAKERELDAAISYRTGTTYYADSVKGRFTISRDNAKNTVYLQMNSLKPEDTAVYYCAAKSRAAVRKYGSEYWGQGTQVTVSS
- polyreactivity (PSR sort gate): high polyreactivity

Sequence: QVQLVESGGGLVQAGGSLRLSCAASGYTFTRNAMGWYRQAPGKERELVATISGSGGGTYYADSVKGRFTISRDNAKNTVYLQMNSLKPEDTAVNYCNARRWFYWQGTARYDYWGQGTQVTVSS
- polyreactivity (PSR sort gate): low polyreactivity

Sequence: QVHLVESAAGLVQEGGSLRVSCAASGRIFDIYAMGGYRQSTGKERELVAAITLRGGTTYADSVKGRFTISRDNAKNSVYLQMNSLKPEDTAVYYCARYHWYYRVSKSESWGQGTQVTVSS
- polyreactivity (PSR sort gate): high polyreactivity

Sequence: QVHLVESGGGLVQAGGSLRLSCAASGLIFVYNAMGWYRQAPGKERELVAGITSGGSTYYADSVKGRFTISRDNAKNTVYLQMNSLKPEDTAVSYCAAGYYDLYLWWGYDYWGQGTQVTVSS
- polyreactivity (PSR sort gate): high polyreactivity

Sequence: QVQLVESGGGLVQAGGSLRLSCAASGFTFSINAMGWYRQAPGKERELVASITWSGGRTYYADSVKGRFTISRDNAKNTVYLQMNSLKPEDTAVYYCAARSYGTSTYDYWGQGTQETVSS
- polyreactivity (PSR sort gate): high polyreactivity

Sequence: HVQLQESGGGLVQAGGSLRLSCGASGNISYSRSMGCYRQAPGKERELVAAIDRGAITYYADSVKGRFTISRDNAKNTVYLQIYSLKPEDTAVYYCAAVYHDRWDHRYWGQGTQVTVCS
- polyreactivity (PSR sort gate): high polyreactivity

Sequence: QVQLVESGGGLVQAGGSLRLSCAASGSTFNAYAMGWYRQAPGKERELVAAISSSGGRTHYADSVKGRFTISRDNAKNTVYLQMNSLKPEDTAVFYCNVGKRFVRNDYWGQGTQVTVSS
- polyreactivity (PSR sort gate): high polyreactivity

Sequence: QVQLVESGGGLVQAGGSLRLSCAASGNTFVKYTMGWYRQAPGKERELVAAITWSGGSTSYADSVKGRFTLSRDNAKNTVYLQMNSLKPEDTAVYYCAAAWSHSRWDTHDYWGQGTQVTVSS
- polyreactivity (PSR sort gate): low polyreactivity

Sequence: QVQLEESGAGLLQAGGSIRLSCAASGRTFWYYTMGWYRQAPGKEREVVAAISSGGRTNYADSVKGRFTISRDNAKNTVYLQMNSLKPEDTAVYDCAALYAKYYYRYDYWGQGTQVTVSS
- polyreactivity (PSR sort gate): high polyreactivity

Sequence: QVQLVESGGGLVQAGGSLRLSCAASGRTFKYNAMGWYIQAPGKERELVAAISSRGGSTYYADSVKGRFTISRDNAKNTVYLQMNSLKPEDTAVYYCAKATSSSEYGYDYWGQGTQVTVSS
- polyreactivity (PSR sort gate): high polyreactivity

Sequence: QVQLVESGGGLVQAGGSLRLSCAASGSIIVWNAMGWYRQAPGKERELVASITSGASTYYADSVKGRFTISRDNAKNTVYLQINSLKPEDTAVYYCAADPWYVAYLLDGYGMDYWGQGTLVTVSS
- polyreactivity (PSR sort gate): low polyreactivity

Sequence: QVQLVESGGGLVQAGGSLRLSCAASGFIFRRYVMGWTRQAPGKERELVAAISNGGGRTYYADSVKGRFTISRDNAKNTVYLQMNSLKPEDTAVYYCAAYPRGPLAPDYDYWGQGTQVTVSS
- polyreactivity (PSR sort gate): high polyreactivity

Sequence: QVQLVESGGGLVQAGGSLRLSCAASGNIFLKNAMGWYRQAPGKERELVAAISKRGGSTYYAYSVKGRFTISRDNAKNTVYLQMNSLKPEDTAVYYCAAVLTKVWRGPEMDYWGQGTQVTVSS
- polyreactivity (PSR sort gate): high polyreactivity

Sequence: QVQLVESGGGLVQAGGSHRLSCAATGIIFARNAMGWYRQAPGKERELVAGINGGRTNYADSVKGRFTISRDNAKNTVYLQMNSLKPEDTAVYYCAARLGRVKYDHWGQGTQVTVSS
- polyreactivity (PSR sort gate): high polyreactivity

Sequence: QVQLVESGGGLVQAGGSLRLSCAACGSIFEFNTMGWYRQAPGKERELVAAISSSGGRTYYADSVKGRFTISRDNAKNSVYLQMNSLKPEDTGVYYCNARRLVHNPDYDYWGQGTQVTVSS
- polyreactivity (PSR sort gate): high polyreactivity

Sequence: QVQLVESGGGLVQAGGSLRLSFAASGGTFRPYAMGWYRQAPGKETELVATIRSSGGRTYYADSVKGRFTISRDNAKNTVYLQMNSLKPEDTAVYYCAKRAQTYYGYDYWVQGTQVTVSS
- polyreactivity (PSR sort gate): high polyreactivity

Sequence: QVQLVESVGGLVQAGGSLRLSCAASGSTSRFYDMGSYSQAPGKERELVAAITQSGGSTRYADSVKGRFTISRENAKNTVYLQLNSLKPEDTAVNYCAARVRGYSVTRTKPASIGGGSWGQGTQVTVSS
- polyreactivity (PSR sort gate): high polyreactivity

Sequence: QVQLVESGGGLVQAGGSLRLSCAASGFIFQQNAMGWYRQAPAKERELVAAINRSGGSTNYADSVKGRFTISRDNAKNTVYLQMNSLKPEDTAVYYCATNGRSFVSKSTMYYWGQGTQVTVSS
- polyreactivity (PSR sort gate): high polyreactivity

Sequence: QVQLQESGGGLVQAGGSLRMSCAASGSISHYIFMGWYRQAPGKEREFVAGIGYGGTTNYADSVKVRFTISRDNAKNTVYLQMNRLKPEDTAMYYCAAREATEFYLYYWGQGTQVTVSS
- polyreactivity (PSR sort gate): low polyreactivity

Sequence: QVQLVESGGGLVQAGGSLRLSCAASGLIFSYNAMGWYRPATGNERELVATIRRVGSTNYADSVKGRFTISRDNAKITVYLQMNSLKPEDTAVYYCAARSLRYGRGMYYWGQGTQVTVSS
- polyreactivity (PSR sort gate): high polyreactivity

Sequence: QVQLVESGGGLVQAGGSLRLSCADSGRTFYGNARGWYRQAPGKERELVAAISISGGSTYYADSVKGRFTISRDNAKNTVYLQMNSLKPEDTAVYYCNAQEYYYYPYVYDSDYWGQGTQVTVSS
- polyreactivity (PSR sort gate): low polyreactivity

Sequence: QVQLVESGGGLVQAGGSLRLSCAASGRIVARYAMGWYRQAPGKERELVAAISPVGSTYYADSVKGRFTISRDNAKNTVYLQMTSLNPEDTGVYYCNAYNTRRSAPYVWRTYDYWGQGTQVTVSS
- polyreactivity (PSR sort gate): high polyreactivity

Sequence: QVQLVESGGGLVQAGGSLRLSCAASGFTFGSNAMGWYRQAPGKERELVAAISSRGGRTYYADSVKGRFTISRDNAKNTVYLQMNSLKPEDTAVYYCAKYRSYRGPYNYWGQGTQVTVSS
- polyreactivity (PSR sort gate): high polyreactivity

Sequence: QVQLVESVGGLVQAGGSLRLSCAASGFTFHGYAMGWYRQAAGKERELVAAIRSGDRTYYADSVKGRFTISRDNAKNTVYLQMNSLKPEDTAVYYCDAGSYFRDSYARIYRWFYYWGQGTQVTVSS
- polyreactivity (PSR sort gate): low polyreactivity

Sequence: QVQLVESGGGLVQAGGSLRLSCAASGNTFWRYTMGWYRQAPGKERELVAAISSSGGSTYYADSVKGRFTISRDNAKNTVYLQMNSLKPEDTAVYYCAAERRLYKIFSYGYWGQGTQVTVSS
- polyreactivity (PSR sort gate): high polyreactivity

Sequence: QVQLVESGGGLVQAGGSLRLSCAASGFTFYINAMGWYRQAPGKEREFVAAITSRGGSTYYADSVKGRFTISRDNAKNTVYLQMNSLKPEDTAVYYCAARNFLSRRGTYDYWGQGTQVTVSS
- polyreactivity (PSR sort gate): high polyreactivity

Sequence: QVQLVESGGGLVQAGGSLRLSCAASGRIFPRNTMGWYRQATGKERELVAAISVSGGSTYYADSVKGRVTISRDNAKNTVYLQMNRLKPEDTAVFFCAAAKCYRSGSWYEYWGQGTQVTVSS
- polyreactivity (PSR sort gate): high polyreactivity

Sequence: QVQLVESGGGLVQAGGSLRLSCAASGSTFTAYAMGWYRQAPGKERELVAAITSSGGGTYYADSVKGRFTISRDNAKNPVYLQMNSLKPEDTAVYYCAAVPGYGYYNYSDFDYWGQGTQVTVSS
- polyreactivity (PSR sort gate): low polyreactivity

Sequence: QVQLVESGGGLVQAGGSLRLSCAASGSIFYHYAMGWSRQAPGKERELVAAITRSGGSTYYADSVKGRFTISRDNAKHTVYLQMNSLKPEDTAVYYCAKDPDSYNFLTSNWYDYWGQGTQVTVSS
- polyreactivity (PSR sort gate): low polyreactivity

Sequence: QVQLQESGGGLVQAGGSLRLSCAASGTISPLPAMGWYRQAPGKEREFVAGIDTGAITNYADSVKGRFTISRDNAKNTVYLQMNSLKPEDTAVYYCAVFPAAYDYDERYYTYWGQGTQVTVSS
- polyreactivity (PSR sort gate): low polyreactivity

Sequence: QVQLVESGGGLVQAGGSLRLSCAASGRIFGKYAMGWYRQAPGKERELVARISFSGGTTYYADSVKGRFTISRDNAKNTVYLQMNSLKQEDTAVYYCNARRVWSQRWAYDSWGQGTQVTVSS
- polyreactivity (PSR sort gate): high polyreactivity

Sequence: QVQLVESGGGLVKAGGSLRLSCAASGRTFRYNAMGWYRQPPGKERELVAVINSNGGSTYYADSVKGRFTISRDNAKNTVYLQMNSLKPEDTAVYYCAADYIRIQEYDYWGQGTQVTVSS
- polyreactivity (PSR sort gate): low polyreactivity

Sequence: QVQLVESGGGLVQAGGSLRLSCAASGSIFWQNTMGWYRQAPGKERELVATISSGDSTYYADSVKGRFTISRDNAKNTVYLQMNSLKPEDTAVYYCNTTEHKYVSSFEYGYWGQGTQVTVSS
- polyreactivity (PSR sort gate): low polyreactivity

Sequence: QVQLEESGGCLVQAGGRIRLSCAASGSIFGYYAMGWYRQAPGKERELVADISYTGVSTYYADSVKGRFTISRDNAKNTVYLQMNSLKPEDTAVYYCAADWVYPDYSWYSYTDFDYWGQGTQVTVSS
- polyreactivity (PSR sort gate): low polyreactivity

Sequence: QVQLVESGGGLVQAGGSLRLSCAASGFTFRQYSMGWYRQARGKERELVAGISSSGGSTRYADSVKGRFTISRDNAKNTVYFQMNSLKPEDTAVYYCAARIASHHYYYWGQVTQVTVSS
- polyreactivity (PSR sort gate): high polyreactivity

Sequence: QVQLVESGGGLVQAGGSLRLSCAASGSTFRVYAMGWYRPAPGKVRELVAAISGSGTSTYYADSVKGRFTISRDNAKNTVYLQMNSLKPEDTAVYYCATGKNYWRGYEYWGQGTQVTVSS
- polyreactivity (PSR sort gate): high polyreactivity

Sequence: QVQLVESGGGLVQAGGSLRLSCAASGLIFYGNAMGWYRQAPGKERELVADITGSSVRTYYADSVKGRFTISRDNAKNTDYLQMNSLKPEDTAVYYCAATYGYLYTGLSRYDYWGQGTQVTVSS
- polyreactivity (PSR sort gate): low polyreactivity
